These results are taken from patent US20210246166A1 (Bayer, published 2021).

Numbered stars: 1 amine (or outer) side, 2 acyl side, 3 side chain; on linkers, the order of the positions; unused ones are H or OH. Bridge positions count the residues as written; N and C are the ends. Square brackets hold non-standard residues; d marks the D form. Ends that are not written are not given here. * marks the point of attachment. NHCH2(1,3-C6H4)CH2CO = O=C(Cc1cccc(CN[*:1])c1)[*:2]; Phe(3-COOH) = N[C@@H](Cc1cccc(C(=O)O)c1)C(=O)O; Benzoyl(3-COOH) = O=C(O)c1cccc(C(=O)*)c1; Benzoyl(4-COOH) = O=C(O)c1ccc(C(=O)*)cc1; Oic = O=C(O)[C@@H]1C[C@@H]2CCCC[C@@H]2N1; tBuAla = CC(C)(C)C[C@H](N)C(=O)O; PEG4 = NCCOCCOCCOCCOCCC(=O)O; Pen = CC(C)(S)[C@H](N)C(=O)O; PEG3 = NCCOCCOCCOCCC(=O)O; Orn = NCCC[C@H](N)C(=O)O; dβPro = D-beta-Proline; Sar = CNCC(=O)O

To fix the notation:
T1: recombinant rat MASP1 active protease (amino acids 302-704, C-terminal His Tag) (rat, UniProt Q8CHN8 302-704)
T1 sequence: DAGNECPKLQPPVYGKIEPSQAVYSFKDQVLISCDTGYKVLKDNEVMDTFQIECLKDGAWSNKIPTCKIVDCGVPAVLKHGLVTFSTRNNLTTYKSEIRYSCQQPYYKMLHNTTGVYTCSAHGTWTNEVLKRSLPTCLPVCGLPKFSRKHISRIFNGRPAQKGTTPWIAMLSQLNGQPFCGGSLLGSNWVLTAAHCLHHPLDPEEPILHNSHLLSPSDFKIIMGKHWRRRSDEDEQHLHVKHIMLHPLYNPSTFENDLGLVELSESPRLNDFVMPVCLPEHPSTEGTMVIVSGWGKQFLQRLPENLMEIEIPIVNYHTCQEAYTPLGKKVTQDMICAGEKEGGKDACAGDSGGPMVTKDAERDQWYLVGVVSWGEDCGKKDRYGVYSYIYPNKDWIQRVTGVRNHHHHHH

B1: Example 484: ((N-Me)G)-IC+SRSLP-(Oic)-I-(Pen)+IPD-(PEG2(13 atoms))-OH (peptide)
peptide: [Sar]ICSRSLP[Oic]I[Pen]IPD[PEG3]-OH
modifications: disulfide 3-11; N-terminus assumed
SMILES: CC[C@H](C)[C@H](NC(=O)CNC)C(=O)N[C@H]1CSSC(C)(C)[C@@H](C(=O)N[C@H](C(=O)N2CCC[C@H]2C(=O)N[C@@H](CC(=O)O)C(=O)NCCOCCOCCOCCC(=O)O)[C@@H](C)CC)NC(=O)[C@H]([C@@H](C)CC)NC(=O)[C@@H]2C[C@@H]3CCCC[C@@H]3N2C(=O)[C@@H]2CCCN2C(=O)[C@H](CC(C)C)NC(=O)[C@H](CO)NC(=O)[C@H](CCCNC(=N)N)NC(=O)[C@H](CO)NC1=O
B2: Example 478: aIC+SRSLP-(Oic)-I-(Pen)-+IP-(3-Aminomethylphenylacetic acid)-OH (peptide)
peptide: [dA]ICSRSLP[Oic]I[Pen]IP[NHCH2(1,3-C6H4)CH2CO]-OH
modifications: disulfide 3-11; N-terminus assumed
SMILES: CC[C@H](C)[C@H](NC(=O)[C@@H](C)N)C(=O)N[C@H]1CSSC(C)(C)[C@@H](C(=O)N[C@H](C(=O)N2CCC[C@H]2C(=O)NCc2cccc(CC(=O)O)c2)[C@@H](C)CC)NC(=O)[C@H]([C@@H](C)CC)NC(=O)[C@@H]2C[C@@H]3CCCC[C@@H]3N2C(=O)[C@@H]2CCCN2C(=O)[C@H](CC(C)C)NC(=O)[C@H](CO)NC(=O)[C@H](CCCNC(=N)N)NC(=O)[C@H](CO)NC1=O
B3: Example 492: ((N-Me)G)-IC+SRSLP-(Oic)-I-(Pen)+IPT-OH (peptide)
peptide: [Sar]ICSRSLP[Oic]I[Pen]IPT-OH
modifications: disulfide 3-11; N-terminus assumed
SMILES: CC[C@H](C)[C@H](NC(=O)CNC)C(=O)N[C@H]1CSSC(C)(C)[C@@H](C(=O)N[C@H](C(=O)N2CCC[C@H]2C(=O)N[C@H](C(=O)O)[C@@H](C)O)[C@@H](C)CC)NC(=O)[C@H]([C@@H](C)CC)NC(=O)[C@@H]2C[C@@H]3CCCC[C@@H]3N2C(=O)[C@@H]2CCCN2C(=O)[C@H](CC(C)C)NC(=O)[C@H](CO)NC(=O)[C@H](CCCNC(=N)N)NC(=O)[C@H](CO)NC1=O
B4: Example 480: (beta-P)-IC+SRS-((tBu)A)-PPI-(Pen)+IPD-OH (peptide)
peptide: XICSRS[tBuAla]PPI[Pen]IPD-OH
modifications: disulfide 3-11; not fully specified (residue 1); printed as (beta-P)-IC + SRS-((tBu)A)-PPI-(Pen) + IPD-OH
B5: Example 491: (3-Carboxybenzoic acid)-GIC+SRSLP-(Oic)-I-(Pen)+IPD-OH (peptide)
peptide: {Benzoyl(3-COOH)}-GICSRSLP[Oic]I[Pen]IPD-OH
modifications: disulfide 3-11
SMILES: CC[C@H](C)[C@H](NC(=O)CNC(=O)c1cccc(C(=O)O)c1)C(=O)N[C@H]1CSSC(C)(C)[C@@H](C(=O)N[C@H](C(=O)N2CCC[C@H]2C(=O)N[C@@H](CC(=O)O)C(=O)O)[C@@H](C)CC)NC(=O)[C@H]([C@@H](C)CC)NC(=O)[C@@H]2C[C@@H]3CCCC[C@@H]3N2C(=O)[C@@H]2CCCN2C(=O)[C@H](CC(C)C)NC(=O)[C@H](CO)NC(=O)[C@H](CCCNC(=N)N)NC(=O)[C@H](CO)NC1=O
B6: Example 493: ((N-Me)G)-IC+SRSLP-(Oic)-I-(Pen)+IPY-OH (peptide)
peptide: [Sar]ICSRSLP[Oic]I[Pen]IPY-OH
modifications: disulfide 3-11; N-terminus assumed
SMILES: CC[C@H](C)[C@H](NC(=O)CNC)C(=O)N[C@H]1CSSC(C)(C)[C@@H](C(=O)N[C@H](C(=O)N2CCC[C@H]2C(=O)N[C@@H](Cc2ccc(O)cc2)C(=O)O)[C@@H](C)CC)NC(=O)[C@H]([C@@H](C)CC)NC(=O)[C@@H]2C[C@@H]3CCCC[C@@H]3N2C(=O)[C@@H]2CCCN2C(=O)[C@H](CC(C)C)NC(=O)[C@H](CO)NC(=O)[C@H](CCCNC(=N)N)NC(=O)[C@H](CO)NC1=O
B7: Example 487: ((N-Me)G)-IC+SRSLP-(Oic)-I-(Pen)+IPR-OH (peptide)
peptide: [Sar]ICSRSLP[Oic]I[Pen]IPR-OH
modifications: disulfide 3-11; N-terminus assumed
SMILES: CC[C@H](C)[C@H](NC(=O)CNC)C(=O)N[C@H]1CSSC(C)(C)[C@@H](C(=O)N[C@H](C(=O)N2CCC[C@H]2C(=O)N[C@@H](CCCNC(=N)N)C(=O)O)[C@@H](C)CC)NC(=O)[C@H]([C@@H](C)CC)NC(=O)[C@@H]2C[C@@H]3CCCC[C@@H]3N2C(=O)[C@@H]2CCCN2C(=O)[C@H](CC(C)C)NC(=O)[C@H](CO)NC(=O)[C@H](CCCNC(=N)N)NC(=O)[C@H](CO)NC1=O
B8: Example 483: ((N-Me)G)-IC+SRSLP-(Oic)-I-(Pen)+IP-((3-Carboxy)F)-OH (peptide)
peptide: [Sar]ICSRSLP[Oic]I[Pen]IP[Phe(3-COOH)]-OH
modifications: disulfide 3-11; N-terminus assumed
SMILES: CC[C@H](C)[C@H](NC(=O)CNC)C(=O)N[C@H]1CSSC(C)(C)[C@@H](C(=O)N[C@H](C(=O)N2CCC[C@H]2C(=O)N[C@@H](Cc2cccc(C(=O)O)c2)C(=O)O)[C@@H](C)CC)NC(=O)[C@H]([C@@H](C)CC)NC(=O)[C@@H]2C[C@@H]3CCCC[C@@H]3N2C(=O)[C@@H]2CCCN2C(=O)[C@H](CC(C)C)NC(=O)[C@H](CO)NC(=O)[C@H](CCCNC(=N)N)NC(=O)[C@H](CO)NC1=O
B9: Example 485: ((N-Me)G)-IC+SRS-((tBu)A)-PPI-(Pen)+IP-(PEG3(16atoms))-OH (peptide)
peptide: [Sar]ICSRS[tBuAla]PPI[Pen]IP[PEG4]-OH
modifications: disulfide 3-11; N-terminus assumed
SMILES: CC[C@H](C)[C@H](NC(=O)CNC)C(=O)N[C@H]1CSSC(C)(C)[C@@H](C(=O)N[C@H](C(=O)N2CCC[C@H]2C(=O)NCCOCCOCCOCCOCCC(=O)O)[C@@H](C)CC)NC(=O)[C@H]([C@@H](C)CC)NC(=O)[C@@H]2CCCN2C(=O)[C@@H]2CCCN2C(=O)[C@H](CC(C)(C)C)NC(=O)[C@H](CO)NC(=O)[C@H](CCCNC(=N)N)NC(=O)[C@H](CO)NC1=O
B10: Example 482: ((N-Me)G)-IC+SRS-((tBu)A)-PPI-(Pen)+IP-((3-Carboxy)F)-OH (peptide)
peptide: [Sar]ICSRS[tBuAla]PPI[Pen]IP[Phe(3-COOH)]-OH
modifications: disulfide 3-11; N-terminus assumed
SMILES: CC[C@H](C)[C@H](NC(=O)CNC)C(=O)N[C@H]1CSSC(C)(C)[C@@H](C(=O)N[C@H](C(=O)N2CCC[C@H]2C(=O)N[C@@H](Cc2cccc(C(=O)O)c2)C(=O)O)[C@@H](C)CC)NC(=O)[C@H]([C@@H](C)CC)NC(=O)[C@@H]2CCCN2C(=O)[C@@H]2CCCN2C(=O)[C@H](CC(C)(C)C)NC(=O)[C@H](CO)NC(=O)[C@H](CCCNC(=N)N)NC(=O)[C@H](CO)NC1=O
B11: Example 490: (4-Carboxybenzoic acid)-GIC+SRSLP-(Oic)-I-(Pen)+IPD-OH (peptide)
peptide: {Benzoyl(4-COOH)}-GICSRSLP[Oic]I[Pen]IPD-OH
modifications: disulfide 3-11
SMILES: CC[C@H](C)[C@H](NC(=O)CNC(=O)c1ccc(C(=O)O)cc1)C(=O)N[C@H]1CSSC(C)(C)[C@@H](C(=O)N[C@H](C(=O)N2CCC[C@H]2C(=O)N[C@@H](CC(=O)O)C(=O)O)[C@@H](C)CC)NC(=O)[C@H]([C@@H](C)CC)NC(=O)[C@@H]2C[C@@H]3CCCC[C@@H]3N2C(=O)[C@@H]2CCCN2C(=O)[C@H](CC(C)C)NC(=O)[C@H](CO)NC(=O)[C@H](CCCNC(=N)N)NC(=O)[C@H](CO)NC1=O
B12: Example 486: ((N-Me)G)-IC+SRS-((tBu)A)-PPI-(Pen)+IP-(Orn)-D-OH (peptide)
peptide: [Sar]ICSRS[tBuAla]PPI[Pen]IP[Orn]D-OH
modifications: disulfide 3-11; N-terminus assumed
SMILES: CC[C@H](C)[C@H](NC(=O)CNC)C(=O)N[C@H]1CSSC(C)(C)[C@@H](C(=O)N[C@H](C(=O)N2CCC[C@H]2C(=O)N[C@@H](CCCN)C(=O)N[C@@H](CC(=O)O)C(=O)O)[C@@H](C)CC)NC(=O)[C@H]([C@@H](C)CC)NC(=O)[C@@H]2CCCN2C(=O)[C@@H]2CCCN2C(=O)[C@H](CC(C)(C)C)NC(=O)[C@H](CO)NC(=O)[C@H](CCCNC(=N)N)NC(=O)[C@H](CO)NC1=O

One experiment addresses T1, recombinant rat MASP1 active protease …. As to the kind of experiment: cell-based or functional assay.
As for B1, the “rat MASP1 IC50” value was determined as 63 nM.
On to [(S)‑Piperidine‑3‑Carboxylic Acid]ICSRSLP[Oic]I[Pen]IPD-OH (disulfide 3-11) [Example 489: ((S)-Piperidine-3-Carboxylic Acid)-IC+SRSLP-(Oic)-I-(Pen)+IPD-OH], for which the “rat MASP1 IC50” value came out at 42 nM.
The same measure, in the same setting: the value for B2 was 68 nM; that for [(R)‑Piperidine‑3‑Carboxylic Acid]ICSRSLP[Oic]I[Pen]IPD-OH (disulfide 3-11) [Example 488: ((R)-Piperidine-3-Carboxylic Acid)-IC+SRSLP-(Oic)-I-(Pen)+IPD-OH] was 41 nM; that for B3 was 65 nM.
On the same count and under the same terms, the value for [dβPro]ICSRS[tBuAla]PPI[Pen]IPD-OH (disulfide 3-11) [Example 481: (beta-p)-IC+SRS-((tBu)A)-PPI-(Pen)+IPD-OH] was 20 nM; that for B4 was 24 nM; that for B5 was 20 nM.
Consider B6, for which the “rat MASP1 IC50” value was 44 nM.
Same read-out and setting: with B7 the figure was 67 nM; with B8, 34 nM; with B9, 36 nM.
Consider B10, for which the “rat MASP1 IC50” value amounted to 18 nM.
On the same count and under the same terms, with B11 the figure was 12.5 nM; with B12, 69 nM.

The target of the next experiment is recombinant rat MASP2 active protease (amino acids 296-685, C-terminal His Tag) (rat, UniProt Q9JJS8 296-685). As to the kind of experiment: cell-based or functional assay.
Sequence of recombinant rat MASP2 active protease (amino acids 296-685, C-terminal His Tag) (Q9JJS8 other isoform, or with tags, fused parts or gaps limits assumed): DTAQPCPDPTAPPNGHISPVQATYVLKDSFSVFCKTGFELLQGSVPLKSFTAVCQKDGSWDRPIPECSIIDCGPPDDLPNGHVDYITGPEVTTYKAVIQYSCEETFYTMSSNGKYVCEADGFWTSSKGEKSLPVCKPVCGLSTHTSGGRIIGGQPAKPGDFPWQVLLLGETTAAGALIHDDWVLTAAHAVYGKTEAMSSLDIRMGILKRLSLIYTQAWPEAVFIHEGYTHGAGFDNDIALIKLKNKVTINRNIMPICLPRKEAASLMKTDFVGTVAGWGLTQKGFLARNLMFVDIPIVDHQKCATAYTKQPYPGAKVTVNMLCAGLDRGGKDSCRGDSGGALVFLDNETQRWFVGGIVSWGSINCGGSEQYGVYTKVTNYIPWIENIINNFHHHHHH
B1: the “rat MASP2 IC50” value amounted to 88 nM.
On the same count and under the same terms, with [(S)‑Piperidine‑3‑Carboxylic Acid]ICSRSLP[Oic]I[Pen]IPD-OH (disulfide 3-11) [Example 489: ((S)-Piperidine-3-Carboxylic Acid)-IC+SRSLP-(Oic)-I-(Pen)+IPD-OH] the figure was 22 nM; with B2, 49 nM; with [(R)‑Piperidine‑3‑Carboxylic Acid]ICSRSLP[Oic]I[Pen]IPD-OH (disulfide 3-11) [Example 488: ((R)-Piperidine-3-Carboxylic Acid)-IC+SRSLP-(Oic)-I-(Pen)+IPD-OH], 36 nM.
The same measure, in the same setting: the value for B3 was 81 nM.
[dβPro]ICSRS[tBuAla]PPI[Pen]IPD-OH (disulfide 3-11) [Example 481: (beta-p)-IC+SRS-((tBu)A)-PPI-(Pen)+IPD-OH]: the “rat MASP2 IC50” value stood at 36 nM.
The same measure, in the same setting: the value for B4 was 41 nM.
Still for that read-out and setting: with B5 the figure was 23 nM; with B6, 49 nM.
Same read-out and setting: the value for B7 was 38 nM.
As to B8, the “rat MASP2 IC50” value was found to be 50 nM.
With B9, the “rat MASP2 IC50” value came out at 32 nM.
On the same count and under the same terms, the value for B10 was 33 nM; that for B11 was 15 nM; that for B12 was 68 nM.
